Source: IntAct's records for PubMed 20485264

Experiments:
ipka_human PKIA [1] = target: ipka_human PKIA (UniProt P61925)
ipka_human PKIA [2] = target: ipka_human PKIA (UniProt P61925); remark: listed apart in the source
ipka_human PKIA [3] = target: ipka_human PKIA (UniProt P61925); remark: listed apart in the source
ipka_human PKIA [4] = target: ipka_human PKIA (UniProt P61925); remark: listed apart in the source
xpo1_yeast CRM1 = xpo1_yeast CRM1 (UniProt P30822)

Substance: Exportin-1 (Saccharomyces cerevisiae) (from UniProt P30822) P754D
- effect of a mutation on the interaction (ipka_human PKIA [1]): increasing interaction

Substance: Exportin-1 (Saccharomyces cerevisiae) (from UniProt P30822) V441A;L442A
- effect of a mutation on the interaction (ipka_human PKIA [2]): increasing interaction

Substance: Exportin-1 (Saccharomyces cerevisiae) (from UniProt P30822) V441D
- effect of a mutation on the interaction (ipka_human PKIA [3]): increasing interaction

Substance: Exportin-1 (Saccharomyces cerevisiae) (from UniProt P30822) V443D
- effect of a mutation on the interaction (ipka_human PKIA [4]): increasing interaction

Substance: cAMP-dependent protein kinase inhibitor alpha (Homo sapiens) (from UniProt P61925) I47A
- effect of a mutation on the interaction (xpo1_yeast CRM1): disrupting interaction
